Reference: publication PMC2919228 (Molecular cell, 2010)

Target: Skp1-GST/Cdc4-HA (Saccharomyces cerevisiae, UniProt P52286 1-194; P07834 1-779)
Experiment: pull-down

Sequence of Skp1-GST/Cdc4-HA (P52286 whole entry, chain 1 of 2): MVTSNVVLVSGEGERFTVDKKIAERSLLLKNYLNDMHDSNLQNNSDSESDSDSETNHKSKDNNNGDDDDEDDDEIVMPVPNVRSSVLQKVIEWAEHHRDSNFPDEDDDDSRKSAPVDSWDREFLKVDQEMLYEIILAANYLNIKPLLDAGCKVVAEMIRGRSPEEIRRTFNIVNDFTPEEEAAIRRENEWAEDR
Sequence of Skp1-GST/Cdc4-HA (P07834 whole entry, chain 2 of 2): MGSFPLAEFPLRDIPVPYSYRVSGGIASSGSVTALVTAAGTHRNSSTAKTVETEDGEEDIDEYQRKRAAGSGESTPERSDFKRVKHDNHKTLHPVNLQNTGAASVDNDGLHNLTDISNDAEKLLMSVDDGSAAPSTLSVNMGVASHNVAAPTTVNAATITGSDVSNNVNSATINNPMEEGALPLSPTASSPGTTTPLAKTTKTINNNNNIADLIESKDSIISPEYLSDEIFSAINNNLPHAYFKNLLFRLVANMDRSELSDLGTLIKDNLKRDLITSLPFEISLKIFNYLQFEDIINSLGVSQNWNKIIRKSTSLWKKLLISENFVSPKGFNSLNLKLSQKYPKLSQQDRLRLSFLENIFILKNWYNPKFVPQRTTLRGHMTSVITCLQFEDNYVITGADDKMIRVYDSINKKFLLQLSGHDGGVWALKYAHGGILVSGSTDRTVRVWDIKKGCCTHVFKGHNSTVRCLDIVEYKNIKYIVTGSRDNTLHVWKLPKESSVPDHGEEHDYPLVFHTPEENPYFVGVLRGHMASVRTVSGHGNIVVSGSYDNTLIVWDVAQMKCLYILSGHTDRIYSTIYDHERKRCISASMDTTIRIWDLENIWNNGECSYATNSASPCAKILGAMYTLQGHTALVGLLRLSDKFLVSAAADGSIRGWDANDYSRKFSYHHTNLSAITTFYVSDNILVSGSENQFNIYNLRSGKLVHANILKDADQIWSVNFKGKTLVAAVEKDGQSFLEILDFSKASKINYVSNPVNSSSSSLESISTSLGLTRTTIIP

B1: Gpa1-Flag (natural protein, Saccharomyces cerevisiae, UniProt P08539 1-472, looked up)
chain: MGCTVSTQTIGDESDPFLQNKRANDVIEQSLQLEKQRDKNEIKLLLLGAGESGKSTVLKQLKLLHQGGFSHQERLQYAQVIWADAIQSMKILIIQARKLGIQLDCDDPINNKDLFACKRILLKAKALDYINASVAGGSDFLNDYVLKYSERYETRRRVQSTGRAKAAFDEDGNISNVKSDTDRDAETVTQNEDADRNNSSRINLQDICKDLNQEGDDQMFVRKTSREIQGQNRRNLIHEDIAKAIKQLWNNDKGIKQCFARSNEFQLEGSAAYYFDNIEKFASPNYVCTDEDILKGRIKTTGITETEFNIGSSKFKVLDAGGQRSERKKWIHCFEGITAVLFVLAMSEYDQMLFEDERVNRMHESIMLFDTLLNSKWFKDTPFILFLNKIDLFEEKVKSMPIRKYFPDYQGRVGDAEAGLKYFEKIFLSLNKTNKPIYVKRTCATDTQTMKFVLSAVTDLIIQQNLKKIGII
binding result: binds
